Data reported in the nanobody polyreactivity screen of Harvey et al. (2022).

Test: yeast display, Sf9 membrane polyspecificity reagent, FACS + sequencing; frameworks hold sequencing errors
Outline: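 A nanobody's polyreactivity label depends on the gate it was sorted from. Yeast display cells were stained with 10% biotinylated, detergent-solubilized Sf9 membrane reagent for 1 hour at 4 °C, enriched on streptavidin microbeads and sorted by FACS. The low and high (top ~1%) gates were set on anti-HA fluorescence for expression and streptavidin fluorescence for reagent binding.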

Sequence	polyreactivity (PSR sort gate)
QVQLVESGGCLVQAGGSLRLICAASGSIFDYNAMGWYRQAPGKERELVADITLSDDSTYYADSVKGRFTISRDNAKNTVYLQKNSLKPEDTAVYYCAADIKYYWYYYYWAYAYDYWGQGTQVTVSS	high polyreactivity
QVQLVESGGGLVQAGGSLRLSCAASGRTFGRYAMGWSRQAPGKERELVAAINRGGSTKYADSVKGRFTISRDNAKNTVYLQMNSLKPEDTAVYYCAKDRHPAVHYDYWGQGTQVTVSS	low polyreactivity
QVQLVESGGGLVQAGGSLRLSCAASGIIFDYYAMGWYRQAPGKERELVAAITTAGSTYYADSVKGRFTISRDNAKNTVYLQLNSLNPEDTAVYYCDAYLYSVRLGSYGYWGQGTQVTVSS	high polyreactivity
QVQLVESGGGLVQAGGSLRLSCAASGFIFTDYAMGWYRQAPGKERELVATISWSGSSTYYADSVKGRFTISRDNAKNTVYLQMNSLKPEDTAVYYCAAEFWYTYPYLVDYWGQGTKVTVSS	low polyreactivity
QVQLEESGGGLVQAGGSLRLSCAASGFTFSLYGMGWYRQAPGKERELVAAIRSGGSTNYADSVKGRFTISRDNAKNTVYLQMNSLKPEDTAVYYCATDIHSVNNNRDKHDYDYWGQGTLVTVSS	low polyreactivity
QVQLVESGGGLVQAGGSLRLSCAASGITFSDNTMGWYRQAPGKERELVAAISWRGGLTYYADSVKGRFTISRDNAKNTVYLQMNSVKPEDTAVYYCIAVTSSKARYSSYDYWGQGTQVTVSS	high polyreactivity
QVQLVESGGGLVQAGGSLRLSCADSGYTFLDYAMGWYRQAPGKERELVAAINSGGSTYYADSVKGRFTISRDNAKNTVYLQMNSLKPEDTAVYYCAREDYVSYRLLYSLFDYWGQGTQVTVSS	low polyreactivity
QVQLVESGGGLVQAGGSLRLSCAASGYIFVFNTMGWYRQAPGKERELVASISWDAGTTYYADSVKGRFTISRDNAKNTVYLQMNSLKPEDTAVDYCNAGRIRSGYLDYWGQGTQVTVSS	low polyreactivity
QVQLVHSGGRLVQAGGRLRLSCAASGSTFSSYARGRYIQGPRKERELVAAISWNGGSTYYADSVKGRFTISRDNAKNTVYLQMNSLKPQDTAVYYCAAIYFRNTYSYGMDYWGQGTQVTVSS	high polyreactivity
QVQLVESGGGLVQAGGSLRLSCAASGSTFQGYSMGWYRPAPGKERELVAAISGSGGNTYYADSVKGRFTISRDNAKNTVYLQMNSLKPEDTAVYYCAAGHVRTDWRYGYWGQGTQVTVSS	low polyreactivity
QVQLVESGGGLVQAGGSLRLSCAASGFIFSFYAMGWYRQAPGKERALVAAINWSGGSTYYADSVKGRFTISRDNAKNTVYIQMNSLKPEDTEVYYCNAVQYFSIPKPVWLFVLRYYYWGQGTQVTVSS	low polyreactivity
QVQLVDSGGGLVQSGGSLSLSCAASGFNFWPYAMGWYREAPGKEREFVAAITRTGGSTSYADSVKGRFTISRDNAKNTVYLQINSLKPEDTAVYYCAATSYYRTNYGLVFQYRRNYGGQGTQVTVSS	high polyreactivity
QVQLVESGGGLVQAGGSLRLSCAASGFNFDFYAMGWYRQAPGKEREMVAAISKNDGTTYFAYSVKGRFTISRDNAKNTVYLQMNSLKPEDTAVYFCAAESGYPVYTYVSSGVYWGQGTQVTVSS	low polyreactivity
QVQLVESGGGLVQAGGSLRLSCAASGFTFYNYAMGWYRQAPGKERELVAAISTSGGSTYYADSVKGRFTISRDNAKNTVYLQMNSLKPEDTAVYYCAAQATAYSYAYYYWGQGTQVTVSS	low polyreactivity
QVQLLESGGGLVQAGGSLRLSCAASGRIFASYAMGWYRQAPGKARELVAAISTGGNTYYADSVKGRFTISRDNAKNTVYLQMNSLKPEDTAVYDCAALSGAHEHFVEYDYWGQGTQVTVSS	low polyreactivity
QVQLVESGGGLVQAGGSLRLSCAASGFTFAFYAMGWYRQAPGKERELVAAISWDGVTTYYADSVKGRFTISRDNAKNTVYLQMNSLKPEDTAVYYCAADYPDYAGSFWPSGMYYWGQGTQVTVSS	low polyreactivity
QVQLVESGGGLVQAGGSLRLSCAASGIIFSPYAMGWYRQAPGNERELVAAISYSGGSTYYADSVKGRFTISRDNAKNTVYLQMNSLKPEDTAVYYCAVVYSYYLAVLGYWDYDYWGQGTQVTVSS	low polyreactivity
QVQLVESGGGLVQAGGTLRLSCAPSGSTFFPYAMGWYRQAPGKEREFVSAIRGSGGVSTYYADSVKGRFTISRDNAKNTVYLQMNSLKPEDTAVYYCAKYVARRVPRGFYYWGQGTQVTVSS	high polyreactivity
QVQLVESGGGLVQAGGSLRLSCAASGSIFEWYAMGWYRQAPGKERELVADISSVGSTYYADSVKGRFTISRDNAKNTVYLQMNSLKPEDTAVYYCNTSYIIWYDSWGQGTQVTVSS	low polyreactivity
QVQLVESGGGLVQAGGSLRLSCAASGNTFVFYAMGWYRQAPGKERELVAAIDTGGTTNYADSVKGRFTISRDNAKNTVYLQMNSLKPEDTAVYYCAKRRLYWSGQGWVRTYGYWGQGTQVTVSS	high polyreactivity
QVQLVESGGGLVQAGGSLRLSCAASGFTFPNYAMGWYRQAPGKERELVAAISRRGGRTYYADSVKGRFTISRDNAKNTVYLQMNSLKPEDTAVYYCATEYRGDGPKYDYWGQGTQVTVSS	high polyreactivity
QVQLVESGGGLVQAGGSLRLSCAASGRIIGKNAMGWYRQAPGEERELVAAIRYNGGRTYYADSVKGRFTISRDNAKNTVYLQMNSLKPEDTAVYYCATRTYRVDPEFGYWGQGTQVTVSS	high polyreactivity
QVQLVESGGGLVQAGGSLPLSCAASGRTFNFYAMGWYRQAPGKERELVATISGGVSTYYADSVKGPFTISRDNAKITVYLQMNSLKPEDTAVYYCAKDSCYPQWDLDYWGQGTQVTVSS	high polyreactivity
QVQLEESGGGLVQAGGSLRLSCAASGRIFSRNARGWYRPSPGKERELVAASSSGGGSTYYADSVKGRFTISRDNAKNTVYLLMNSLKPEDTAVYYCAARTRITYDWGQGTQVTVSS	low polyreactivity
QVQLVESGGGLVQAGGSLRLSCAASGSTFYGYAMGWYRQAPGKERELVAAITRSGGSTYYADSVKGRFTISRDNAKNTVYLQMNSLKPEDTEVYYCNKYGYKGGVGYDYWGQGSQVTVSS	high polyreactivity
QVQLVESGGGLVQAGGSLRLSCAASGSTFWNYAMGWYRQAPGKERELVAAISQRGGSTYYADSVKGRFTISRDNAKNTVYLQMNSLKPEDTAVYYCNIDYAGELDYWGQGTQVTVSS	high polyreactivity
QVQLVESGGGLVQAGGSLRLSCAASGGIFRYYAMGWYRQAPGKERELVAAISKSGGRTYYADSVKGRFTISRDNAKNTVYLQMNSLKPEDTAVYYCAADLYPFSRNTRYQFLYNYWGQGTQVTVSS	low polyreactivity
QVQLVESGGGLVQAGGSLRLSCAPSGRIFYGYAMGWYRQAPGKEREFVARINVSGTSTFYADSVKGRFTISRDNAKNTVYLQMNSLKPEDTAVYYCAARGLPSNYYYYVHGYIMDYWGQGTHVTVSS	low polyreactivity
QVQLVESGGGLVHAGGSLRLSCAPSRIFVYNAMGWYRQAPGKERELVATITSSGGITYYADSVKGRFTISRDNAKNTVYLQMNSLKPEDTAVYYCNKVRRYYYRTHNDFWGQGTQVTVSS	high polyreactivity
QMQLQESGGGLVQAGGSLRLSCAPSGTIIRVRYMGWHRQAPGKDRELVAGINGGTTTYNSDSVIGRFTISRDNANNTVFLQMNSLKPDDTAVYKCAAGASRLTYYDYWGQGTQVTVSS	low polyreactivity
